{"source": "patent US8722043B2", "about": "“Induction of p53 expression by neutralization of neuropilin-2 for the treatment of cancers” (Diaclone, priority 2008, dated 2014)", "key": {"HT29-NRP-2 cells": {"tested_on": "HT29-NRP-2 cells", "experiment": "Annexin V-APC apoptosis test", "type": "cell-based, human", "procedure": "In order to determine the ability of the ITAC-B1 antibody to induce apoptosis of tumour cells expressing NRP-2, an in vitro Annexin V-APC apoptosis test was carried out (BD Pharmingen, San Diego, Calif.). This test is based on the externalization of phosphatidylserin by apoptotic cells and on the binding of Annexin V-APC to this molecule.\n1 ml of DMEM medium containing 10% of inactivated FCS and 100 000 HT29-NRP-2 cells or 100 000 HT29ctrl cells were seeded, per well, into a 24-well Nunc plate. […] In parallel, “cells alone” controls were carried out, as were negative controls (anti-human mouse IgG1 antibody (BZ1) at the same concentrations as the ITAC-B1 antibody).\n[…] When the cells began to detach, 500 μl of DMEM medium-10% FCS were added per well. The cells were then centrifuged, washed twice in PBS, and then taken up in 300 μl of 1× binding buffer (provided in the kit), and then 5 μl of Annexin V-APC were subsequently added to 100 μl of this solution.\nThe panels of FIG. 13 are point-cloud representations of the flow cytometry analysis. For each of the panels, the fluorescence intensity (corresponding to the labelling of the cells with Annexin V-APC) is represented on the x-axis. The y-axis indicates the granulosity of the cells (Side Scatter or SSC). […] The percentage of cells labelled with Annexin V-APC (corresponding to the percentage of cells having entered into apoptosis) is indicated at the bottom-right of each panel.\nThe apoptosis induced was then measured by labelling with Annexin V-APC as described above.\nThe panels of FIG. 15 are point-cloud representations of the flow cytometry analysis. For each of the panels, the fluorescence intensity (corresponding to the labelling of the cells with Annexin V-APC) is represented on the x-axis. The y-axis indicates the granulosity (side scatter) of the cells. The conditions of treatment with the antibodies and the Avastin® are indicated to the left of the panels. The percentage of cells labelled with the Annexin V-APC, corresponding to the percentage of cells having entered into apoptosis, is indicated at the top-right of each panel."}, "HT29-NRP-2 tumour cells": {"tested_on": "HT29-NRP-2 tumour cells", "experiment": "HT29-NRP-2 subcutaneous xenograft, tumour volume", "type": "in vivo, immunodeficient mice", "procedure": "HT29-NRP-2 tumour cells were injected subcutaneously into 20 immunodeficient mice, at a rate of 1×10^6 cells per mouse, in the right flank. 10 days after the injection, the tumours measure approximately 5 mm×5 mm.\nIn accordance with the protocol described above, group B was inoculated with ITAC-B1 at D0 (12 mg/kg), D3 (6 mg/kg), D7 (12 mg/kg) and D10 (6 mg/kg). Group C was inoculated with 20 mg/kg of 5-FU from D0 to D4 and then with 100 mg/kg at D9. Group D was inoculated with ITAC-B1 at D0 (12 mg/kg), D3 (6 mg/kg), D7 (12 mg/kg) and D10 (6 mg/kg) and with 20 mg/kg of 5-FU from D0 to D4 and 100 mg/kg of 5-FU at D9.\nThe tumours were measured twice a week, and the volume of the tumours was calculated with the formula: V (mm^3)=d^2×D/2.\nFIG. 21 represents the tumour volume as a function of time. Group A (PBS control) is represented by (⋄), group B (mice inoculated with the ITAC-B1 antibody) is represented by (▪), group C (mice inoculated with 5-FU) is represented by (Δ), and group D (mice inoculated both with the ITAC-B1 antibody and with 5-FU) is represented by (x)."}, "[1]": {"target": "T1, neuropilin-2 on HT29-NRP-2 tumour cells (Homo sapiens, UniProt O60462)", "T1 construct": "expressed in transfected cells; host or cells: HT29 (human colorectal cancer) and P815 (murine mastocytoma) cells, G418-selected", "T1 sequence (O60462 21-931)": "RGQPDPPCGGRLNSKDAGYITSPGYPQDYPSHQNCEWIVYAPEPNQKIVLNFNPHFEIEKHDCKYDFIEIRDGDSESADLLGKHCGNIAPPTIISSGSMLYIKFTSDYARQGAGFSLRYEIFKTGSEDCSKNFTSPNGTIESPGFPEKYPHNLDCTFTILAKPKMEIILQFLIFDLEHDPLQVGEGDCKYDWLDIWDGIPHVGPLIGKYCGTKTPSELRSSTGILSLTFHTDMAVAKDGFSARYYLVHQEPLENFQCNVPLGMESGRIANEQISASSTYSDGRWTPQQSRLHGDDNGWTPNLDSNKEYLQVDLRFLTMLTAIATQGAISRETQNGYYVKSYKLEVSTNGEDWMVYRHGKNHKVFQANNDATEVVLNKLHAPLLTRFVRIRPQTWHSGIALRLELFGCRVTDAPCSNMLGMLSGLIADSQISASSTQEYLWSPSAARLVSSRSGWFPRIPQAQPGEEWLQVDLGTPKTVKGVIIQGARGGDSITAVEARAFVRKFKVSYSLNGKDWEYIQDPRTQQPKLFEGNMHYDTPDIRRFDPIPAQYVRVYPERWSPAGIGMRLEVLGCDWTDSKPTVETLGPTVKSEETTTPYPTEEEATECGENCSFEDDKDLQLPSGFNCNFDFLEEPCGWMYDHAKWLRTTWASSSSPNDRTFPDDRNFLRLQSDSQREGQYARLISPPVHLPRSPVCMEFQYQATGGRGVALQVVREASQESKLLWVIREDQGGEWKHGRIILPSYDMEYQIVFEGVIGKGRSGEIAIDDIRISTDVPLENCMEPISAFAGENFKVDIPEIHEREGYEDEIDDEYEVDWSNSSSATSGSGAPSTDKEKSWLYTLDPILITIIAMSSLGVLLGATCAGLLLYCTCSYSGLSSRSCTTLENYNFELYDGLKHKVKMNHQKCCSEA", "experiment": "Competition between VEGFa and ITAC-B1 for recognition of neuropilin-2 (flow cytometry)", "type": "binding", "details": "preincubation with VEGF 1000 ng/ml for 15 minutes", "procedure": "These cells were then incubated with the ITAC-B1 antibody or with a control isotype antibody (BZ1 antibody), and analysed by flow cytometry as described in Example 2 above."}, "[2]": {"tested_on": "Colo320^siRNA-NRP-2 cells (not expressing NRP-2)", "experiment": "MTT assay for tumour cell proliferation", "type": "cell-based, human", "details": "5 μg/ml antibody; 24, 48 or 72 hours", "description": "(§1) The MTT proliferation assay is based on the reduction of 3-(4,5-dimethylthiazol-2-yl)-2,5-diphenyltetrazolium bromide), by the mitochondrial succinate dehydrogenase of active live cells, to give formazan. The coloration intensity (OD) induced by this reaction is proportional to the number of live cells present during the assay, and to the metabolic activity thereof.\n(§2) 4000 cells per well of Colo320^siRNA-ctrl cells (control cells transfected with an empty vector) or of Colo320^siRNA-NRP-2 cells (transfected with an siRNA targeting NRP-2), in 100 μl of DMEM medium containing 10% of inactivated FCS, were seeded into a 96-well Maxisorp plate. After adhesion of the cells, 5 μg/ml of ITAC-B anti-NRP-2 antibody or 5 μg/ml of control antibody were added. After culture for 24, 48 or 72 hours, 10 p. 1 of MTT reconstituted at 5 mg/ml in PBS were added to each culture well. The plates were then incubated for 3 hours in the dark, at 37° C. and 5% CO2, and centrifuged, and then the supernatant was removed. 200 p. 1 of DMSO were then added to each well. The optical density was read within an hour, at 570 nm, after shaking with the plate. The assay was carried out in triplicate.\n(§3) Panels A and B of FIG. 11 represent, respectively, the results obtained in the proliferation assay carried out with the Colo320^siRNA-ctrl or Colo320^siRNA-NRP-2 cells. […]"}, "[3]": {"tested_on": "Colo320^siRNA-ctrl cells (express NRP-2)", "experiment": "MTT assay for tumour cell proliferation", "type": "cell-based, human", "details": "5 μg/ml antibody; 24, 48 or 72 hours", "description": "as §1, §2, §3"}}}
{"molecule": "ITAC-B1: anti-human neuropilin-2 murine monoclonal antibody, VH SEQ ID No. 2, VL SEQ ID No. 4, produced by hybridoma CNCM 1-4054 (antibody, listed as Mus musculus, V domains shown) VH: EVKLQESGAELVKPGASVKLSCTVSGFNIKDTYIHWVIQRPEQGLEWLGRIDPANGNTKYDPKFQGKATITADTSSNTAYLQLSSLTSEDTAVYYCARWAVVGDYWGQGTTLTVSS VL: YCDHPLYKFLHVSAGDRVTITCKASQSVSDDVAWYQQKPGQSPKLLIYSASNRYTGVPDRFTGSGYGTDFTFTISTVQPEDLAVYFCQQDYSSPTFGSGTKLELK", "values": [{"measurement": "apoptosis induced (Annexin V-APC labelling) as a function of concentration", "setting": "HT29-NRP-2 cells; 0.5, 1 and 5 μg/ml, 16 hours", "result": "dose-dependent"}, {"measurement": "dose at which apoptosis of cells expressing NRP-2 is induced", "setting": "HT29-NRP-2 cells; 16 hours incubation, 0.5, 1 and 5 μg/ml tested", "result": "greater than or equal to 1 μg/ml"}, {"measurement": "combined action with anticancer molecules (5-FU, irinotecan) on apoptosis", "setting": "HT29-NRP-2 cells; FIG. 13", "result": "synergy of action"}, {"measurement": "percentage of cells labelled with Annexin V-APC (apoptosis)", "setting": "HT29-NRP-2 cells; ITAC-B1 2.5 μg/ml jointly with 5-FU 10 μg/ml (FIG. 13)", "result": "~78.5", "unit": "%"}, {"measurement": "percentage of cells labelled with Annexin V-APC (apoptosis)", "setting": "HT29-NRP-2 cells; ITAC-B1 2.5 μg/ml with irinotecan 10 μg/ml (FIG. 13)", "result": "~51", "unit": "%"}, {"measurement": "percentage of cells labelled with Annexin V-APC (apoptosis)", "setting": "HT29-NRP-2 cells; ITAC-B1 5 μg/ml jointly with 5-FU 10 μg/ml (FIG. 13)", "result": "~80", "unit": "%"}, {"measurement": "percentage of cells labelled with Annexin V-APC (apoptosis)", "setting": "HT29-NRP-2 cells; ITAC-B1 5 μg/ml with irinotecan 10 μg/ml (FIG. 13)", "result": "~58", "unit": "%"}, {"measurement": "percentage of cells labelled with Annexin V-APC (apoptosis)", "setting": "HT29-NRP-2 cells; antibody 20 μg/ml, 6 hours, cells cultured with Avastin (bevacizumab) 50 μg/ml (FIG. 15)", "result": "approximately 58%"}, {"measurement": "percentage of cells labelled with Annexin V-APC (apoptosis)", "setting": "HT29-NRP-2 cells; antibody 20 μg/ml, 6 hours, without Avastin (FIG. 15)", "result": "~51", "unit": "%"}, {"measurement": "ability to induce apoptosis of tumour cells expressing neuropilin-2 (selection of clones)", "setting": "HT29-NRP-2 cells; selection criterion of the hybridoma clones", "result": "ability to induce apoptosis of tumour cells expressing neuropilin-2"}, {"measurement": "tumour volume", "setting": "HT29-NRP-2 tumour cells; group B: ITAC-B1 intraperitoneally D0 12 mg/kg, D3 6 mg/kg, D7 12 mg/kg, D10 6 mg/kg", "result": "reduction in tumour volume is observed starting from D14"}, {"measurement": "tumour volume", "setting": "HT29-NRP-2 tumour cells; group D: ITAC-B1 combined with 5-FU, same regimens", "result": "more marked"}, {"measurement": "binding to the tumour cells in the presence of VEGFa", "setting": "[1]", "result": "does not prevent the binding of ITAC-B1 to the tumour cells"}, {"measurement": "proliferation (OD at 570 nm)", "setting": "[2]", "result": "identical to that of the control cells and to that observed in the presence of the control antibody"}, {"measurement": "proliferation (OD at 570 nm)", "setting": "[3]", "result": "less than that of the cells alone and that observed in the presence of the control antibody"}]}
